What all share (format): biochemical, Quillaja saponaria
The nature of assay [1]: Experiment 4-1: screening of glucosidases for deglycosylation with purified QS-18 (0.04 mg/ml) at pH 7.5 and room temperature. Conditions: pH 7.5, room temperature, 20 h, clarified E. coli lysate, QS-18 2150 to QS-21 1988 by LCMS/MS. Put shortly: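 Deglycosylation measured by LC-MS/MS as % conversion after 20 h room-temperature incubation of QS-18 phenyl fraction (0.04 mg/ml final) with polymyxin B/lysozyme lysates, pH 7.5 phosphate, of E. coli BL21(DE3) expressing each enzyme; MeCN quench. Positives exceeded negative control by >3 S.D.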

The nature of assay [2]: Experiment 4-2: screening of glucosidases for deglycosylation with purified QS-18 (1 mg/ml) at pH 6 and 30 deg C. Conditions: pH 6, 30 degC, 18 hrs, clarified lysate, LCMS/MS. The procedure, abridged: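 Enzyme activity derived from LC-MS/MS analysis after MeCN quench. Substrate QS-18 (1 mg/ml final) was exposed overnight (18 h, 30 °C, pH 6 phosphate buffer) to clarified lysates containing candidate glucosidases.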

Assay [3] in a line: Experiment 4-4: screening of glucosidases for deglycosylation of QS-18 in crude bark extract (1 in 20 dilution) to QS-21. Conditions: CBE 1 in 20 dilution, pH 6, 25 degC, 18 hours; % conversion of Middle Peak by UV HPLC. The procedure, abridged: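 Clarified glucosidase lysates were incubated with pH 6 crude bark extract (1 in 20) in potassium phosphate buffer pH 6 for 18 h at 25 °C with shaking, then quenched with MeCN. UV HPLC with MS/MS-supported peak identity; activity is % conversion of the extract's Middle Peak (QS-18 family) toward the QS-21 peak.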

Bounds are passed on as bounds.

B1: 222 (protein, listed as Marinomonas posidonica)
chain: MTPKDILNALTVEEKARLCTGKDFWHLHGIERLELPSIMVTDGPHGLRKQSGEGDHVGLNASVKATCFPTASGLASSWNPALIEKMGVALGKECRAENVSVLLGPGINIKRNPLGGRNFEYFSEDPLIAGDMSTAWIKGVQSQDVGTSLKHYAVNNHEHCRMTVDAVVDQRTLREIYLPAFEKAIKQSQPWTVMCAYNKINGTYAAEHQQLLDDILVKEWGFEGIVVTDWGANNDRVEGIKHGQHLEMPSSGELNTQKILDAIDSGRLSIAALDKSVLRVLELIVKSQAALNNAPVNVDLERHHTLASKVAEESCVLLKNDQLLPAQKDQNVLVIGALANNTRYQGAGSSKINPFKLEQPLAQIEAVFGTNNVRYSQGYQLNDESDQTMIEDAVAQAEQADVIFLFAGLTPKYESEGFDRQHLNLPQVQLDLIDALGDQLGKTAVILQNGAPVTLPFVDKVPAILEAYLGGQAGASAIAKILAGDVNPSGKLAETFPLSLDDVPSQPYFPGTTKQTQYREAIWVGYRYFAHTAQPVLFPFGHGLTYSEFSFSELRIMDDKLDLKAVSFDEQTRIRLQVTVTNTGDRAGAEVVQCYLGQNKPSQPRPAKELRAYQKVFLEAGQSKCVELELNYRDFAFWCEADSQWRVESDDYHIQIGASVEDIRLTTLITLKTDTPLAPQNATLSAYFTPADRQFNDQSFSALLGKPIPDATPITPYTLNSTLGDIAQTEQGKPLFNAMLSVFSKMMEGDTNDSAAEADKLMAEAMVSDMPLRNLPVFNSQSYSEEALLALLADLNS
Take B1: in assay [1], the “Expt 4-1 % conv” value is recorded as 1.6%. Further, the “Expt 4-2 % conv” value in assay [2] worked out at 0.4%. In addition, in assay [3], the “Expt 4-4 % conv” value is below 3%.

B2: 380 (protein, listed as Ogataea parapolymorpha)
chain: MSTFDVDDILSQLHVKEKVQLLSLKDFWHTANIDRLNIPSVRLSDGPNGVRGTKFFRSVPSACFSSGTALAATFNMPLLEQLGKLMAEEARHKGAHVILGPTCNIARGPLGGRGFESFSEDPYLSGIAAAAIIKGIESQGIGATLKHFVCNDLEDERNSIDVILSDRALREIYLLPFQIAIKEANPKCVMSSYNKVMGEHVSQSKKLLTDILRKEWGWDGLTMSDWFGVYSIKSSLDAGLDLECPGYPLMRKHDALIHAISSREINMDVIDIRVRNILKLVQHALKSSIPQNAPEDSENNTPETSALLRKAASEAIVLLKNESSILPLKPSDEIAVIGPNARIPRMYGGGSASVNCYYGISVYDGISNKIGSQPPYSMGCDIARNMFDLGKLASYKGEPGVRIKVYKEAPGTPDRSLIEEFRYDSLQLLLFDYNHEKLDSSLFYFDIEGEFTSDKDMSYDIHLSCLGTALLYINGELFIDDKTNQKMGFAAIGASSLGDTKTIHMKKDERIEFKIEFGSAPTFTLETLDLVASNGGGSLTVAIGEKITDQNRINDAVELAKTADKVILCVGTSSDWESEGFDRPHMDLPKSQGILIEEILKVNKNIILVNLSGTPVTLPWIDEIPAVVHGWFNGMESGNAMADVLYGDVNASGKLSLSWPKRCEDNPSFLNFKSDKGKVVYGEDVFVGYRYYEKVCREPLFAFGYGLSYTAFNFDGLDVKVAADNLVCTLNIKNIGKLRGAEVVQLYVIPPLTTTTVSRPLKEFKGCQKVFLEPGQKITTTISVPIKYACSYFDVERQKWSIESGEYGVFIGNSSDAMDALIGKFVIQKPLLWSGL
As for B2, the “Expt 4-1 % conv” value in assay [1] stood at 2.4%. The “Expt 4-2 % conv” value in assay [2] came out at 0.5%. In addition, in assay [3], the “Expt 4-4 % conv” value is on record as below 3%.
